We go through 1 molecule from patent US20180230200A1 (CITY OF HOPE, published 2018).

As usually defined, the EC50 is the concentration at which the effect is half-maximal. The low end stands for greater potency, the high end for weaker potency.

Test [1] addresses T1, gH/gL/UL128/UL130/UL131A pentamer complex expressed from MVA-PC in BHK-21 cells (human cytomegalovirus, UniProt P12824 24-743; P16832 31-278; P16837 28-171; P16772 1-214; F5HET4 19-129).
T1 construct: whole, on cells
Put plainly: FC competition, MVA-PC BHK-21; unlabelled row Ab; competitor: biotinylated 21E9.

Test [2] has as its target T1, gH/gL/UL128/UL130/UL131A pentamer …. Put plainly: FC competition, MVA-PC BHK-21; unlabelled row Ab; competitor: biotinylated 21F6.
The target in test [3] is T2, UL128/UL131A co-expressed from MVA in BHK-21 cells (human cytomegalovirus, UniProt P16837 28-171; F5HET4 19-129).
T2 construct: whole, on cells
The test is described as follows: intracellular FC, MVA-infected BHK-21.
Protocol: (§1) NAb subunit specificity was evaluated by staining BHK-21 cells infected with different MVA recombinants. One or more vectors were used to co-infect BHK-21 at an MOI of 5. […] Four hours post infection cells were fixed and permeabilized using Cytofix/Cytoperm solution (BD Biosciences). NAbs (1 mg/ml) were diluted 1:500 in perm/wash buffer (BD) and added to the cells for 1 hour at 4° C. […] Cells were washed again and resuspended in PBS/0.1% BSA. Fifteen thousand events were collected using the Gallios Flow Cytometer (Beckman Coulter, Miami, Fla., USA) and analyzed with FlowJo Software (Tree Star, Ashland, Oreg., USA). Uninfected cells and cells infected with MVA-Venus were used as controls. GFP expression was analyzed for confirming MVA infection since all the constructs contain a GFP expression cassette (36, 62).
(§2) In order to determine the antigen specificity of the vaccine-derived NAbs, intracellular flow cytometry (FC) staining of permeabilized BHK-21 cells infected with MVA expressing single subunits or combinations of two or more subunits of the PC was evaluated.

The target in test [4] is T3, UL128/UL130 co-expressed from MVA in BHK-21 cells (human cytomegalovirus, UniProt P16837 28-171; P16772 1-214).
T3 construct: whole, on cells
Put plainly: intracellular FC, MVA-infected BHK-21.
Protocol: as §1, §2

The target of test [5] is T4, UL130/UL131A co-expressed from MVA in BHK-21 cells (human cytomegalovirus, UniProt P16772 1-214; F5HET4 19-129).
T4 construct: whole, on cells
The test is described as follows: intracellular FC, MVA-infected BHK-21.
Protocol: as §1, §2

Test [6] concerns the target T5, UL128 expressed from MVA in BHK-21 cells (human cytomegalovirus, UniProt P16837 28-171).
T5 construct: whole, on cells
T5 sequence: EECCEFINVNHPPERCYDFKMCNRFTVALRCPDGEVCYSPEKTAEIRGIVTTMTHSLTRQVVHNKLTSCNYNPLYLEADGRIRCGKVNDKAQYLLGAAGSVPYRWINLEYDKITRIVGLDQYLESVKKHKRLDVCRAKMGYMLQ
Put plainly: intracellular FC, MVA-infected BHK-21.
Protocol: as §1, §2

The target of test [7] is T6, UL128/UL130/UL131A co-expressed from MVA in BHK-21 cells (human cytomegalovirus, UniProt P16837 28-171; P16772 1-214; F5HET4 19-129).
T6 construct: whole, on cells
Put plainly: intracellular FC, MVA-infected BHK-21.
Protocol: as §1, §2

Test [8] addresses T7, UL131A expressed from MVA in BHK-21 cells (human cytomegalovirus, UniProt F5HET4 19-129).
T7 construct: whole, on cells
The test is described as follows: intracellular FC, MVA-infected BHK-21.
Protocol: as §1, §2

Test [9] concerns the target T8, UL130 expressed from MVA in BHK-21 cells (human cytomegalovirus, UniProt P16772 1-214).
T8 construct: whole, on cells
The test is described as follows: intracellular FC, MVA-infected BHK-21.
Protocol: as §1, §2

The target of test [10] is T1, gH/gL/UL128/UL130/UL131A pentamer …. Put plainly: FC competition, MVA-PC BHK-21; unlabelled row Ab; competitor: biotinylated 54E11.
For test [11] the target is unchanged. The test is described as follows: FC, biotinylated NAb titrated on MVA-PC-infected BHK-21 (cell surface PC).
The next test concerns the target gH of HCMV strain TB40/E (human cytomegalovirus strain TB40/E). The test is described as follows: cell-based or functional assay.
Test [12] concerns the target T1, gH/gL/UL128/UL130/UL131A pentamer …. The test is described as follows: FC competition, MVA-PC BHK-21; unlabelled row Ab; competitor: biotinylated 62-11.
The target is the same in test [13]. The test is described as follows: FC competition, MVA-PC BHK-21; unlabelled row Ab; competitor: biotinylated 12E2.
The target is the same in test [14]. Put plainly: FC competition, MVA-PC BHK-21; unlabelled row Ab; competitor: biotinylated 18F10.
Test [15] has the same target. Put plainly: FC competition, MVA-PC BHK-21; unlabelled row Ab; competitor: biotinylated 2-80.

B1: 18F10 (antibody, V domains shown)
VH: QVTLKESGPGILQPSQTLSLTCSFSGFSLSTYGIGIGWIRQPSGKGLEWLAHIWWNDNKNYNTALKSRLTISKDPSNNQVFLKIASVDTADTATYFCARTGYFDVWGAGTTVTVSS
VL: DVVLTQTPLSLPVSLGDQVSISCSSSQSLVHSNGNTYIHWYLQKPGQSPKLLIYTVSNRFSGVPDRFSGSGSGTDFTLKISRVEAEDLGLYFCSQSTHVPYTFGGGTKLEIK
notes: also called NAb 18F10
As to B1, the “Binding Inhibition (%)” value in [1] stood at 0%; in test [2], 0%; in test [10] it was 0%; in [12], 0%; in [13] it was 0%; in [14], 100%. In addition, the “Binding Inhibition (%)” value in test [15] came out at 0%. For the same molecule, the binding result in test [3], in test [4], in test [5], in test [6], in test [7] and in test [8] was “no binding” throughout. Also, the binding result in test [9] was “no binding”. The molecule further registered an EC50 in test [11] of 6.5 nM. For the same molecule, the “IC50, inhibition of TB40/E cell-to-cell spread in ARPE-19” value in the test with gH of HCMV strain TB40/E is 95 µg/mL. The “IC50, neutralization of TB40/E infection of ARPE-19” value with gH of HCMV strain TB40/E was 0.763 µg/mL. Also, the “IC50, neutralization of TB40/E infection of CTB” value in the test with gH of HCMV strain TB40/E stood at 8.8 µg/mL. Further, the “IC50, neutralization of TB40/E infection of HUVEC” value with gH of HCMV strain TB40/E came out at 1.49 µg/mL. In the test with gH of HCMV strain TB40/E, the “IC50, neutralization of TB40/E infection of MRC-5” value was over 25 µg/mL.
